In PMC8643467, “Appearance of peanut agglutinin in the blood circulation after peanut ingestion promotes endothelial secretion of metastasis-promoting cytokines” (Carcinogenesis, 2021):

Biological target: MCAM (CD146), melanoma cell adhesion molecule (human (endogenous in HUVECs), UniProt P43121 24-646)
Test: cell-based or functional assay

IL-6 secretion from HUVECs by ELISA, dose series of PNA, highest after 24 h with 8 μg/ml PNA: 3 fold
MCP-1 secretion from HUVECs by ELISA, dose series of PNA, highest after 24 h with 8 μg/ml PNA: 13 fold
B1: Peanut agglutinin (PNA), agarose-conjugated (natural protein, Arachis hypogaea, UniProt P02872 24-273, looked up)
chain: AETVSFNFNSFSEGNPAINFQGDVTVLSNGNIQLTNLNKVNSVGRVLYAMPVRIWSSATGNVASFLTSFSFEMKDIKDYDPADGIIFFIAPEDTQIPAGSIGGGTLGVSDTKGAGHFVGVEFDTYSNSEYNDPPTDHVGIDVNSVDSVKTVPWNSVSGAVVKVTVIYDSSTKTLSVAVTNDNGDITTIAQVVDLKAKLPERVKFGFSASGSLGGRQIHLIRSWSFTSTLITTTRRSIDNNEKKIMNMASA
